Test results published in publication PMC5977221.
Where “and” joins values, the source holds several entries; their conditions need not be identical. Equal values may be shown once.

Legend:
[1] = tested on: BAA2326 repressor (Shiga toxin-encoding bacteriophage BAA2326 (from STEC)); assay: EMSA; conditions: for binding signal: scale: fold Kd relative to separate OR1
[2] = tested on: BAA2326 repressor (Shiga toxin-encoding bacteriophage BAA2326 (from STEC)); assay: DNaseI footprinting

Substance | binding signal [1] | other results
GCGAATTCACTAAAGCACTTGCAATATCACCTTTGGTTATATGTAATGCCATAATAACTAAGAAGCTTCC (double strand) [BAA2326 OR3 oligonucleotide] | 2.5 | –
GCGAATTCACTAAAGCACTTGCAATATGTAATGAAATATCTGCGGTGTTGACATTCCATAATAACTAAGAAGCTTCC (double strand) [BAA2326 OR2 oligonucleotide] | 83.3 | –
GCGAATTCACTAAAGCACTTGCATTTAATAACTGTGCGTAATGATATGCCATAATAACTAAGAAGCTTCC (double strand) [BAA2326 OR1 oligonucleotide] | – | Kd [1]: 0.42 nM
intact BAA2326 OR, wild type | – | Kd [2]: 28.6 nM and 44 nM and 59.1 nM
